Reference: patent US20050118674A1, “Engineering of Controlled Deamidation Rates in Peptides, Proteins, and Similar Structures” (priority 2003, published 2005)
Where no end group is shown, it is not given here.

test: First-order nonenzymatic deamidation of pentapeptides in Tris buffer; assay type: physicochemical; conditions: pH 7.4, 37.0° C., 0.15 M Tris HCl; Asn pentapeptides
Outline: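 First-order deamidation rates determined for XxxAsnYyy and XxxGlnYyy pentapeptides in 0.15 M Tris buffer, pH 7.4, 37° C. Not all values were measured directly: several Asn rates were estimated and most Gln rates came from surface fitting.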

Substance	First-Order Deamidation Halftimes of GlyXxxAsnYyyGly [days]
GlyAlaAsnPheGly (GANFG; printed: GlyAlaAsnPheGly)	65.6
GlyHisAsnLeuGly (GHNLG; printed: GlyHisAsnLeuGly)	116
GlyAlaAsnHisGly (GANHG; printed: GlyAlaAsnHisGly)	9.3
GlyValAsnArgGly (GVNRG; printed: GlyValAsnArgGly)	67.4
GlyLysAsnLysGly (GKNKG; printed: GlyLysAsnLysGly)	53.5
GlyValAsnHisGly (GVNHG; printed: GlyValAsnHisGly)	10.2
GlyLeuAsnGlyGly (GLNGG; printed: GlyLeuAsnGlyGly)	1.08
GlyAlaAsnTyrGly (GANYG; printed: GlyAlaAsnTyrGly)	73.9
GlyLysAsnTyrGly (GKNYG; printed: GlyLysAsnTyrGly)	96.7
GlyGlyAsnLeuGly (GGNLG; printed: GlyGlyAsnLeuGly)	104
GlyAmCysAsnArgGly (CNRG; not fully specified (N-terminus); printed as GlyAmCysAsnArgGly)	58.8
GlyArgAsnIleGly (GRNIG; printed: GlyArgAsnIleGly)	311
GlyAmCysAsnGluGly (CNEG; not fully specified (N-terminus); printed as GlyAmCysAsnGluGly)	45
GlyPheAsnLysGly (GFNKG; printed: GlyPheAsnLysGly)	58.2
GlyArgAsnLeuGly (GRNLG; printed: GlyArgAsnLeuGly)	128
GlyMetAsnCysGly (GMNCG; printed: GlyMetAsnCysGly)	49.6
GlyCysAsnAspGly (GCNDG; printed: GlyCysAsnAspGly)	30.6
GlyThrAsnProGly (GTNPG; printed: GlyThrAsnProGly)	6290
GlyGluAsnMetGly (GENMG; printed: GlyGluAsnMetGly)	59.6
GlyLeuAsnAspGly (GLNDG; printed: GlyLeuAsnAspGly)	32.1
GlyGlyAsnValGly (GGNVG; printed: GlyGlyAsnValGly)	224
GlyTrpAsnGlyGly (GWNGG; printed: GlyTrpAsnGlyGly)	1.75
GlyLeuAsnSerGly (GLNSG; printed: GlyLeuAsnSerGly)	16.7

Substance	First-Order Deamidation Halftimes of GlyXxxAsnYyyGly [days]
GlyPheAsnSerGly (GFNSG; printed: GlyPheAsnSerGly)	18.1
GlySerAsnIleGly (GSNIG; printed: GlySerAsnIleGly)	285
GlyMetAsnAlaGly (GMNAG; printed: GlyMetAsnAlaGly)	22.1
GlyValAsnTyrGly (GVNYG; printed: GlyValAsnTyrGly)	79.2
GlyIleAsnIleGly (GINIG; printed: GlyIleAsnIleGly)	384
GlyProAsnSerGly (GPNSG; printed: GlyProAsnSerGly)	18.9
GlyAspAsnProGly (GDNPG; printed: GlyAspAsnProGly)	11800
GlyMetAsnGlyGly (GMNGG; printed: GlyMetAsnGlyGly)	1.04
GlyTyrAsnSerGly (GYNSG; printed: GlyTyrAsnSerGly)	11.9
GlyGlyAsnLysGly (GGNKG; printed: GlyGlyAsnLysGly)	48.2
GlyHisAsnSerGly (GHNSG; printed: GlyHisAsnSerGly)	15.7
GlyAlaAsnLysGly (GANKG; printed: GlyAlaAsnLysGly)	55.9
GlyHisAsnCysGly (GHNCG; printed: GlyHisAsnCysGly)	43.9
GlyArgAsnCysGly (GRNCG; printed: GlyArgAsnCysGly)	50.5
GlyThrAsnGluGly (GTNEG; printed: GlyThrAsnGluGly)	60.8
GlyTrpAsnCysGly (GWNCG; printed: GlyTrpAsnCysGly)	83.1
GlyAspAsnTrpGly (GDNWG; printed: GlyAspAsnTrpGly)	80.3
GlyArgAsnTrpGly (GRNWG; printed: GlyArgAsnTrpGly)	127
GlyGluAsnAspGly (GENDG; printed: GlyGluAsnAspGly)	32.0
GlyAlaAsnArgGly (GANRG; printed: GlyAlaAsnArgGly)	62.4
GlyThrAsnAlaGly (GTNAG; printed: GlyThrAsnAlaGly)	24.6
GlyAspAsnLeuGly (GDNLG; printed: GlyAspAsnLeuGly)	111

same assay, conditions: pH 7.4, 37.0 ° C., 0.15 M Tris HCl; Gln pentapeptides; 52 values measured, rest derived from surface fitting

Substance	First-Order Deamidation Halftimes of GlyXxxGlnYyyGly [days]
GlyHisGlnGluGly (GHQEG; printed: GlyHisGlnGluGly)	5800
GlyGluGlnPheGly (GEQFG; printed: GlyGluGlnPheGly)	8400
GlyThrGlnMetGly (GTQMG; printed: GlyThrGlnMetGly)	3700
GlyTrpGlnThrGly (GWQTG; printed: GlyTrpGlnThrGly)	5600
GlyPheGlnGlyGly (GFQGG; printed: GlyPheGlnGlyGly)	660
GlyTyrGlnTrpGly (GYQWG; printed: GlyTyrGlnTrpGly)	18000
GlyAspGlnArgGly (GDQRG; printed: GlyAspGlnArgGly)	5200
GlySerGlnThrGly (GSQTG; printed: GlySerGlnThrGly)	5400
GlyLysGlnIleGly (GKQIG; printed: GlyLysGlnIleGly)	5400
GlyThrGlnTrpGly (GTQWG; printed: GlyThrGlnTrpGly)	9700
GlyLysGlnMetGly (GKQMG; printed: GlyLysGlnMetGly)	4000
GlyIleGlnTrpGly (GIQWG; printed: GlyIleGlnTrpGly)	16000
GlyProGlnLysGly (GPQKG; printed: GlyProGlnLysGly)	5500
GlyGlyGlnValGly (GGQVG; printed: GlyGlyGlnValGly)	6500
GlySerGlnGlyGly (GSQGG; printed: GlySerGlnGlyGly)	700
GlyPheGlnTyrGly (GFQYG; printed: GlyPheGlnTyrGly)	12000
GlyAlaGlnAlaGly (GAQAG; printed: GlyAlaGlnAlaGly)	5300

Substance	First-Order Deamidation Halftimes of GlyXxxGlnYyyGly [days]
GlySerGlnTyrGly (GSQYG; printed: GlySerGlnTyrGly)	13000
GlyCysGlnGlyGly (GCQGG; printed: GlyCysGlnGlyGly)	560
GlyTrpGlnLeuGly (GWQLG; printed: GlyTrpGlnLeuGly)	7900
GlyTrpGlnSerGly (GWQSG; printed: GlyTrpGlnSerGly)	6500
GlyLeuGlnTrpGly (GLQWG; printed: GlyLeuGlnTrpGly)	16000
GlyThrGlnLeuGly (GTQLG; printed: GlyThrGlnLeuGly)	5200
GlyValGlnArgGly (GVQRG; printed: GlyValGlnArgGly)	6100
GlyLysGlnHisGly (GKQHG; printed: GlyLysGlnHisGly)	6100
GlyMetGlnLeuGly (GMQLG; printed: GlyMetGlnLeuGly)	5000
GlyAlaGlnSerGly (GAQSG; printed: GlyAlaGlnSerGly)	5200
GlyPheGlnTrpGly (GFQWG; printed: GlyPheGlnTrpGly)	16000
GlyAlaGlnPheGly (GAQFG; printed: GlyAlaGlnPheGly)	7500
GlyThrGlnArgGly (GTQRG; printed: GlyThrGlnArgGly)	5100
GlyGluGlnProGly (GEQPG; printed: GlyGluGlnProGly)	10000
GlySerGlnValGly (GSQVG; printed: GlySerGlnValGly)	6800
GlyProGlnHisGly (GPQHG; printed: GlyProGlnHisGly)	5200
GlyThrGlnThrGly (GTQTG; printed: GlyThrGlnThrGly)	4000
